Patent US20250129146A1, “COMBINED CANCER THERAPY WITH AN EPITHELIAL CELL ADHESION MOLECULE (EPCAM) INHIBITOR AND A WNT INHIBITOR” (ACADEMIA SINICA, priority 2021, published 2025)

B1: EpAb2-6: anti-EpCAM (EpEX) neutralizing monoclonal antibody produced in mice by hybridoma; VH SEQ ID NO: 15, VL SEQ ID NO: 16 (antibody, V domains shown)
VH: VKLQESGPELKKPGETVKISCKASGYTFTDYSMHWVKQAPGKGLKWMGWINTETGEPTYADDFKGRFAFSLETSASTAYLQINNLKNEDTATYFCARTAVYWGQGTTVTVSS
VL: DIQMTQSPSSLSASLGERVSLTCRASQEISVSLSWLQQEPDGTIKRLIYATSTLDSGVPKRFSGSRSGSDYSLTISSLESEDFVDYYCLQYASYPWTFGGGTKLEIK
B2: EpEX: extracellular domain of EpCAM, produced in house by Expi293 Expression System (protein)
chain: QEECVCENYKLAVNCFVNNNRQCQCTSVGAQNTVICSKLAAKCLVMKAEMNGSKLGRRAKPEGALQNNDGLYDPDCDESGLFKAKQCNGTSMCWCVNTAGVRRTDKDTEITCSERVRTYWIIIELKHKAREKPYDSKSLRTALQKEITTRYQLDPKFITSILYENNVITIDLVQNSSQKTQNDVDIADVAYYFEKDVKGESLFHSKKMDLTVNGEQLDLDPGQTLIYYVDEKAPEFSMQGLKAGVIAVIVVVVIAVVAGIVVLVISRKKRMAKYEKAEIKEMGEMHRELNA
B3: Wnt3A: recombinant Wnt3A (R & D systems) (protein, UniProt P56704 19-352, looked up)
Protein Wnt-3a: SYPIWWSLAVGPQYSSLGSQPILCASIPGLVPKQLRFCRNYVEIMPSVAEGIKIGIQECQHQFRGRRWNCTTVHDSLAIFGPVLDKATRESAFVHAIASAGVAFAVTRSCAEGTAAICGCSSRHQGSPGKGWKWGGCSEDIEFGGMVSREFADARENRPDARSAMNRHNNEAGRQAIASHMHLKCKCHGLSGSCEVKTCWWSQPDFRAIGDFLKDKYDSASEMVVEKHRESRGWVETLRPRYTYFKVPTERDLVYYEASPNFCEPNPETGSFGTRDRTCNVSSHGIDGCDLLCCGRGHNARAERRREKCRCVFHWCCYVSCQECTRVYDVHTCK

Legend:
[1] = system: colon cancer cells (SW620, HCT116); assay: Annexin-V/PI apoptosis assay; format: cell-based, human
Experimental: Cells were seeded in 24-well plate ([…] cells per well) overnight and then treated with 20 μg/mL mEpAb2-6, hEpAb2-6 or MT201, or […] LGK974 (MedChemExpress) or the combination for 24 hrs. Cell pellets were collected, and an apoptosis assay was performed using an Annexin-V/PI apoptosis kit (BD Biosciences). Results were read by flow cytometry analysis percentage apoptotic cells was calculated.

[2] = system: EpCAM; assay: Antibody binding to EpCAM wild-type, deletion and point mutants in HEK293T cells (immunofluorescence, flow cytometry, cellular ELISA); parameters: species or system human; conditions: mutations at EpCAM positions Y32 (EGF-I domain) or Y95 (EGF-II domain); HEK293T cells
Experimental: FIGS. 18A to 18G. […] HEK293T cells were transfected with full length or EGF like-domain deletion mutant EpCAM-V5. Antibody binding was assessed by (FIG. 8A) Western blotting, (FIG. 8B) flow cytometry, and (FIG. 8C) immunofluorescence. (FIG. 8D) EpCAM mutants were constructed with amino acid substitutions in the EGF-I (Y32A) and EGF-II (L94A, Y95A, or D96A) domains. EpCAM wild-type and mutant proteins were expressed in HEK293T cells. Binding of MT201, EpAb2-6 and EpAb23-1 to EpCAM wild-type and mutants were evaluated by (FIG. 8E) immunofluorescence, (FIG. 8F) flow cytometry, and (FIG. 8G) cellular ELISA. All data are presented as mean±SEM. *, p<0.05; **, p<0.01.
Here, we wanted to determine whether the antibody binds to EpCAM at both EGF-like domains of EpEX (FIG. 18A, FIG. 18B, FIG. 18C). To confirm that EpAb2-6 recognizes the LYD motif in EpCAM, we constructed cDNA sequences encoding the first (aa 27-59; EGF-I domain) and second (aa 66-135; EGF-II/TY domain) EGF-like repeats of EpCAM. PCR-based site-directed mutagenesis was then used to introduce mutations into each domain (FIG. 18D). The reactivity of EpAb2-6 antibody toward these EpCAM mutants was evaluated by immunofluorescence (FIG. 18E), flow cytometry (FIG. 18F), and cellular ELISA (FIG. 18G).

[3] = target: T1, recombinant LRP5 (Homo sapiens, UniProt O75197); assay: ELISA of EpEX binding to Wnt receptor-coated plates (LRP5)
T1 construct: purchased Proteintech
Experimental: (§1) For ELISA, wells (at least 6 wells per single protein) were coated with recombinant FZD6 (Proteintech), recombinant FZD7 (Proteintech), recombinant LRP5 (Proteintech), recombinant LRP6 (Proteintech) overnight at 4° C. The wells were then blocked with 1% BSA and treated with EpEX-his (Produced in house by Expi293 Expression System) for 2 hours. Otherwise, EpEX-His was incubated with EpAb2-6 overnight and the complex was used to treat the protein-coated plates for 2 hours. Further anti-His antibody (abeam) was used and TMB was performed to record optical density at 450 nm.

[4] = target: T2, recombinant FZD7 (Homo sapiens, UniProt O75084); assay: ELISA of EpEX binding to Wnt receptor-coated plates (FZD7)
T2 construct: purchased Proteintech
Experimental: as §1

[5] = system: Axin2; assay: Wnt-target Axin2 expression (western blot, qPCR); format: cell-based, human; conditions: HT29 and HCT116 cells; EpEX, Wnt3A or combination; protein and mRNA
Experimental: For western blotting, cells were extracted using radioimmunoprecipitation assay (RIPA) buffer [(0.01 M sodium phosphate, pH 7.2), 150 mM NaCl, 2 mM EDTA, 50 mM NaF, 1% Nonidet P-40, 1% sodium deoxycholate, and 0.1% SDS)] containing phosphatase inhibitor (Roche) and protease inhibitor (Roche) cocktail. Equal amounts of protein were separated by SDS-PAGE and then transferred to PVDF membranes. The membranes were blocked with 3% BSA in TBST (Blocking solution) and incubated with necessary primary antibodies in the blocking solution overnight at 4° C. Membranes were then incubated with HRP-conjugated secondary antibodies in the blocking solution for 1 h at room temperature, and protein expression were detected. […]
Total RNA was extracted using TRI reagent and 5 μg of the total RNA was further reverse-transcribed using oligo (dT) primer with reverse transcriptase. Quantitative real time RT-PCR (qPCR) was performed on cDNA using the Light Cycler 480 SYBR Green-I Master kit and the LightCycler480 System. […]

[6] = system: TACE; assay: TACE activity assay; format: cell-based, human; conditions: HCT116 and HT29 cells; 250 ng/mL EpEX-His or 100 ng/mL Wnt3A for 8 h, or combination
Experimental: Cells were seeded overnight in 24-well plate ([…] cells per well) and further treated with 250 ng/mL EpEX-His or 100 ng/mL Wnt3A (R&D Systems) for 8 h. Then, TACE activity was measured using the InnoZyme TACE activity kit (Merck). In brief, cell lysates were prepared with RIPA buffer and loaded into a TACE antibody-coated plate and incubated at RT for 1 h with slight shaking. Further, the lysates were removed and the plate was washed three times. Substrate was added into each well and incubated for 5 h at 37° C. Finally, the fluorescence signal of the reaction product was detected at excitation of 324 nm and emission of 405 nm using a microplate reader.

[7] = system: γ-secretase; assay: γ-Secretase activity (luciferase reporter); format: cell-based, human; conditions: HCT116 and HT29 cells; 250 ng/mL EpEX-His or 100 ng/mL Wnt3A for 8 h, or combination
Experimental: The γ-secretase activity was measured using the protocol described by Liao et al (2004) (Liao et al., 2004). In brief, cells were transiently transfected with the control plasmid and tetracycline-inducible γ-secretase plasmid harboring luciferase (Liao et al., 2004) (the plasmids were generous gifts from Dr. Yung-Feng Liao, ICOB, Academia Sinica). Cells were treated with 250 ng/mL EpEX-His or 100 ng/mL Wnt3A (R&D Systems) for 8 h. Further, cells were lysed using passive lysis buffer and subjected to the luciferase assay.

[8] = EpEX-His incubated with antibody overnight
[9] = EpEX-His alone, 2 hours, optical density at 450 nm

T1 sequence (O75197 32-1615): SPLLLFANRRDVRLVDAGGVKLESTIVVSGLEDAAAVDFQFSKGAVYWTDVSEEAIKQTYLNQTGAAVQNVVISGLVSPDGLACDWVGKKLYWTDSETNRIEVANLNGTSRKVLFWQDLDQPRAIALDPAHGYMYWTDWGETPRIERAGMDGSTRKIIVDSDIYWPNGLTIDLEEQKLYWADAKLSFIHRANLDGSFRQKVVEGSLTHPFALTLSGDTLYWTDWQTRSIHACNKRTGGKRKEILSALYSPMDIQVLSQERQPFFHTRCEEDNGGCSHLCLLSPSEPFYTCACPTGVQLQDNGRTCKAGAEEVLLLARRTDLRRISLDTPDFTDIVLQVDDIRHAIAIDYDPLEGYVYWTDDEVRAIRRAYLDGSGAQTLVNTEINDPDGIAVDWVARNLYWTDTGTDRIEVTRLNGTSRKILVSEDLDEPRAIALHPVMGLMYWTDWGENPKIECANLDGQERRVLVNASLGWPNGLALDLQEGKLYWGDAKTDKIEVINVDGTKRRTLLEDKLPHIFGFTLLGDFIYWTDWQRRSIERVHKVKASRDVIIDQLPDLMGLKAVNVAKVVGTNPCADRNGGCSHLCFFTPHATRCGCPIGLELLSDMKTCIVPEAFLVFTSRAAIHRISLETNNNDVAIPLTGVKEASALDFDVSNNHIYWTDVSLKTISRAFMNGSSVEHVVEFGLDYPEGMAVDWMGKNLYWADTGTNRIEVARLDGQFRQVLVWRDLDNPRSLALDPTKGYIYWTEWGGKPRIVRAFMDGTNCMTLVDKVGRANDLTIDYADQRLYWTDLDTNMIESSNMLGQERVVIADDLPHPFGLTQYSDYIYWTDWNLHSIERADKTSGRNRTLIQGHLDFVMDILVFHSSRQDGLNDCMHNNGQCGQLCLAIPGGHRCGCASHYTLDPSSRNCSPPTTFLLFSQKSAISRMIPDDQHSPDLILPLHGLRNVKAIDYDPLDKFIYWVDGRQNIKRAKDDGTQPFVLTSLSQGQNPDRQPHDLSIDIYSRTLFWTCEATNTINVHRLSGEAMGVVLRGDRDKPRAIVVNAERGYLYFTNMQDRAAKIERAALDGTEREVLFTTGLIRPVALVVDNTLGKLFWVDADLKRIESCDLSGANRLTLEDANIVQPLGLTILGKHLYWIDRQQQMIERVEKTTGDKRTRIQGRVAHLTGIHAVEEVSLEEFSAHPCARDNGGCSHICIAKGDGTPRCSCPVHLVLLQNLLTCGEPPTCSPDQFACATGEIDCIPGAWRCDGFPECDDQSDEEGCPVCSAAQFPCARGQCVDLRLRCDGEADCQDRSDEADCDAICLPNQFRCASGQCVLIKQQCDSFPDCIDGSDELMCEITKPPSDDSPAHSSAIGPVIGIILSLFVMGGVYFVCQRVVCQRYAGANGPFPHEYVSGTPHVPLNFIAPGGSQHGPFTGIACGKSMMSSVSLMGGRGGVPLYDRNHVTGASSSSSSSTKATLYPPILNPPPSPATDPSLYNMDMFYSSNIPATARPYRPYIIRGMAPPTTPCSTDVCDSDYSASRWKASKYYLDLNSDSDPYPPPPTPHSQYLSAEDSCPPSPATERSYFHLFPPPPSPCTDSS

Row | EpEX binding to LRP5 [3, 9] | EpEX binding to FZD7 [4, 9] | Molecule | induction of apoptosis ([1]; HCT116 cells, 20 μg/mL hEpAb2-6, mEpAb2-6 or MT201 for 24 hrs) | antibody binding to EpCAM mutants [2] | EpEX binding to LRP5 after pre-incubation with antibody [3, 8] | induction of apoptosis ([1]; SW620 and HCT116 cells, 20 μg/mL EpAb2-6, LGK974 or the combination for 24 hrs) | EpEX binding to FZD7 after pre-incubation with antibody [4, 8] | Axin2 expression [5] | TACE activity [6] | γ-secretase activity [7]
1 |  |  | MT201: adecatumumab, a human anti-EpCAM antibody that was subjected to clinical trials [reference compound] | does not have such activity | did not affect MT201 binding |  |  |  |  |  | 
2 |  |  | B1 |  | marked reductions in EpAb2-6 binding | substantially decreased binding | could induce apoptosis | substantially decreased binding |  |  | 
3 | bind with all receptor proteins | bind with all receptor proteins | B2 |  |  |  |  |  | increased Axin2 expression | enhanced | enhanced
4 |  |  | B3 |  |  |  |  |  | increased Axin2 expression | enhanced | enhanced
